Experimental data: IntAct's records for PubMed 14675752

B1: Clathrin interactor 1 (Homo sapiens), Q14677 (parent)
chain: MLNMWKVRELVDKATNVVMNYSEIESKVREATNDDPWGPSGQLMGEIAKATFMYEQFPELMNMLWSRMLKDNKKNWRRVYKSLLLLAYLIRNGSERVVTSAREHIYDLRSLENYHFVDEHGKDQGINIRQKVKELVEFAQDDDRLREERKKAKKNKDKYVGVSSDSVGGFRYSERYDPEPKSKWDEEWDKNKSAFPFSDKLGELSDKIGSTIDDTISKFRRKDREDSPERCSDSDEEKKARRGRSPKGEFKDEEETVTTKHIHITQATETTTTRHKRTANPSKTIDLGAAAHYTGDKASPDQNASTHTPQSSVKTSVPSSKSSGDLVDLFDGTSQSTGGSADLFGGFADFGSAAASGSFPSQVTATSGNGDFGDWSAFNQAPSGPVASSGEFFGSASQPAVELVSGSQSALGPPPAASNSSDLFDLMGSSQATMTSSQSMNFSMMSTNTVGLGLPMSRSQNTDMVQKSVSKTLPSTWSDPSVNISLDNLLPGMQPSKPQQPSLNTMIQQQNMQQPMNVMTQSFGAVNLSSPSNMLPVRPQTNALIGGPMPMSMPNVMTGTMGMAPLGNTPMMNQSMMGMNMNIGMSAAGMGLTGTMGMGMPNIAMTSGTVQPKQDAFANFANFSK

Variants of: B1
Conditions: with ap1g1_mouse Ap1g1, P22892
ap1g1_mouse Ap1g1, P22892, sequence (P22892 whole entry): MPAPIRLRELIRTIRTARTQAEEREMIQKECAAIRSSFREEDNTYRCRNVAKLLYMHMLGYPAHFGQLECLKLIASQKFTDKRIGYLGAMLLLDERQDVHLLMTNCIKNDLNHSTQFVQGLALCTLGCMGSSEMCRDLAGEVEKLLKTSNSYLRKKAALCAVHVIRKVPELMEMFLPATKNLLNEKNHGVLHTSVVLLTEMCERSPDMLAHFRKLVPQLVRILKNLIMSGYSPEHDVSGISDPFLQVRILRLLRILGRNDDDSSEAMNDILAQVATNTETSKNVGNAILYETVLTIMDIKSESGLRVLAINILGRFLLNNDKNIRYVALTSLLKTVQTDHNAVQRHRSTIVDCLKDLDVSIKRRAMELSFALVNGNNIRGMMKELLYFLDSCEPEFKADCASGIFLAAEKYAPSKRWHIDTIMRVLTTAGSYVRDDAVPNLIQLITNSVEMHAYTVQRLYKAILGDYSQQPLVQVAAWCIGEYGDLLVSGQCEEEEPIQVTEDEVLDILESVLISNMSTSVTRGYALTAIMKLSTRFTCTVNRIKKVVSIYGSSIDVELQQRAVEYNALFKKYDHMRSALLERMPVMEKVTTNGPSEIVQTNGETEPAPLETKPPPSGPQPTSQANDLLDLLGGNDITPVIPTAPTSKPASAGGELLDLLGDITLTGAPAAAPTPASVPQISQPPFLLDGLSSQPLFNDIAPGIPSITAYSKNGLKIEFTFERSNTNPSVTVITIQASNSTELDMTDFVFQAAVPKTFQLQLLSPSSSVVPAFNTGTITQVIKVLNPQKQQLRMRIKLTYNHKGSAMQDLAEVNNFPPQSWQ

effect of a mutation on the interaction	Variant
decreasing interaction	W375A

Variants of: B1
Conditions: with ap1g1_mouse Ap1g1, P22892
Remark: another data set of the same source

effect of a mutation on the interaction	Variant
decreasing interaction	F372A

Variants of: B1
Conditions: with ap1g1_mouse Ap1g1, P22892
Remark: another data set of the same source

effect of a mutation on the interaction	Variant
decreasing interaction	F378A

Variants of: B1
Conditions: with ap1g1_mouse Ap1g1, P22892
Remark: another data set of the same source

effect of a mutation on the interaction	Variant
decreasing interaction	D371A

Variants of: B1
Conditions: with ap1g1_mouse Ap1g1, P22892
Remark: another data set of the same source

effect of a mutation on the interaction	Variant
decreasing interaction	G373R

Variants of: B1
Conditions: with ap1g1_mouse Ap1g1, P22892
Remark: another data set of the same source

effect of a mutation on the interaction	Variant
decreasing interaction	D374A
